Experiment: yeast display, Sf9 membrane polyspecificity reagent, FACS + sequencing; frameworks hold sequencing errors
Procedure, shortened: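 Using colony PCR, genes from sorted yeast display clones were amplified, then sequenced on MiSeq at 2 × 250 and filtered by CDR length. The clones had been stained with 10% biotinylated, detergent-solubilized Sf9 membrane reagent for 1 hour at 4 °C and sorted by FACS into low and high (top ~1%) gates on anti-HA and streptavidin fluorescence. Polyreactivity labels come from the gate of origin.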

Row | Sequence | polyreactivity (PSR sort gate)
1 | QVQLVESGGGLVQAGGSLRLSCAASGRTFYRNVMGWYRQAPGKERELVAAISWSGGRTYYADSVKGRFTISRDNAKNTVYLQMNSLKPEDTAVYYCARYDRGGRHYYYWGQGTQVTVSS | high polyreactivity
2 | QVQLVESGGGLVQAGGSLRLSCAASGSTFQRYAMGWYRQAPGKERELVAAITWSNGSTYYADSVKGRFTISRDNAKNTVYLQMNSLKPEDTAVYYCDAEVHLGGDYWGQGTQVTVSS | low polyreactivity
3 | QVQLVESGGGLVQAGGSLRLSCAASGFIFLQYADMGWYRQAPGKERELVAAISYIGGSTYYADSVKGRFTISRDNAKNTVYLQMNSLKPEDTAVYYCAAEYSTAFGEYYYWGQGTQVTVSS | high polyreactivity
4 | QVQLVESGGGLVQAGGSLRLSCAASGSTFVRNDKGWYRQAPGTEREFVAAINGDGRTYYADSVKGRFTISRDNEKNTVYLQMNSLKPEDTAVYYCAADWKSSRSYSYEMDYWGQGTQVTVSS | low polyreactivity
5 | QVQLVESGGGLVQAGGSLRLSCAASGFTFGSNVMGWYRQAPGKERELVATIRRGGSTNYADSVKGRFTISRDNAKNTVYLQMNSLKPEDTAVYYCATGYAVYLSRRDYWGQGTQVTVSS | high polyreactivity
6 | QVQLVKSGGGLVQAGGSLRLSCAASGIIFWLYDMGWYRQAPGKERELVAVITWSGDSTYADSVKGRFTISRDNAKNTVYLQMNSLKPEDTAVYYCAAREYYRKPYDHWGQGTQVTVSS | high polyreactivity
7 | QVQRVESRVSLVQEGGSLRLSCASSGLIYYRYTMGCYINAPVKEREVFAAISSGGRTYYADSVKGRFTISRDNAKNTVYLQMNSLKPEDTAVYYCATRVYSVHAPSAVPIGGYYWGQGTQVTVSS | high polyreactivity
8 | QVQLEESGGGLVQAGGSLRLSCAASGSIFALYTIGWSRQAPRKERELVAAISSRGGSTYYADSVKGRFTISRDNAKNTVYLQMNSLKPEDTAVYYCNAVVRESAYNFDYWGQGTQVTVSS | high polyreactivity
9 | QVQLVESGGGLVQAGGSLRLSCAASGSRYSRNAMGWYRQAPGKERELVAASSYSSGSTYYADSVKGRFTISLDNAKNTVYLQMNSLIPEDTAVYYCAADTTKLQGVEGDYWGQGTQVTVSS | low polyreactivity
10 | QVQLVESGGGLVQAGGSLRLSFAASGRIFSDNAMGWYRQAPGKERELVATINYSGGSTYYADSVKGRFTISRDNAKNTFYLQMNSLKPEDTAVYYCATRIPHRIIYYDYDYWGQGTQVTVSS | low polyreactivity
11 | QVHLVESGGGLVQAGGSLRLTCAASGRILWSYAMGWYRQAPGKERELVAAITSGTRTNYADSVKGRFTISRDNAKNTVYLQMNSVKPEDTAVFSCNAVSLRYRFDYWGQGTQLTVSS | high polyreactivity
12 | QVQLVESGGGLVQAGGSLRLSCAASGIIFRGYAMGWYRLAPGKERELVAAINQDSGNTYYADSVKGRFTISRDNAKKTVYLQMNSLKPEDTAVYYCAASSRLNRWNYYAFDYWGQGTQVTVSS | high polyreactivity
13 | QVQLVESGGGLVQAGGSLRLSCAASGFTFYRYAIGWYRQAPGKETQFFASISRSGGSTYYADSVKGRFTISRDNAKNTVYLQMNSLKPEDTEVYYCAKSYTSSPFRIRDYWGQGTQVTVSS | high polyreactivity
14 | QVQLVESGGGLVQAGGSLRLSCAASGFIFSIYAMGWYRQAPGKERELVAGIDNGGGTYYADSVKGRFTISRDNAKNTVYLQMNSLKPEDTAVYYCDLGSTTMDYWGQGTQVTVSS | low polyreactivity
15 | QVQLVESGGGLVQAGGSLRLSCAASGIIFPRYTMGSYRQAPGKERELVAAISWRGGRTYYADSVKGRFTISRDNAKNTVYLQMNSLKPEDTAVYYCAAEFVHSYSYAYDYWGQGTQVTVSS | high polyreactivity
16 | QVQLQESGDGLVQAVGSLRLSCAASGYISGYYYMGWYRQAPGKERELVAGIDAFGSSTNYADCVKGRFTISRDNAKNTVYLQMNSPNPEDTAVYYCAAEFDDWDYHSYWGQGTQVSVSS | low polyreactivity
17 | QVQLVESGGGLVQAGGSLRLSCAASGRIFIGNAMGWYRQAPGKERELVAAISRRGGTTYYADSVKGRFTISRDNAKNTVYLQMNSLKPEDTAVYYCNKEWTYEHGYWGQGTQVTVSS | high polyreactivity

Reference: the nanobody polyreactivity screen of Harvey et al. (2022)
